What was measured:
[1] = biological target: p97 (melanotransferrin), GPI-anchored, on the cell surface (human) (UniProt P08582); test: cell-based or functional assay
[2] = biological target: p97 (melanotransferrin), GPI-anchored, on the cell surface (human) (UniProt P08582); test: FACS, SK-MEL-28 cells, L235 hybridoma supernatant + GAM IgG-FITC
[3] = biological target: p97 (melanotransferrin), GPI-anchored, on the cell surface (human) (UniProt P08582); test: FACS, SK-MEL-28 cells pre-incubated with PI-PLC (removes p97), L235 + GAM IgG-FITC
[4] = biological target: p97 (melanotransferrin), GPI-anchored, on the cell surface (human) (UniProt P08582); test: FACS, Sf9 cells infected with p97 recombinant virus p97 B-1-1, L235 + GAM IgG-FITC
[5] = biological target: p97 (melanotransferrin), GPI-anchored, on the cell surface (human) (UniProt P08582); test: FACS, Sf9 cells infected with p97 recombinant virus p97 B-2-1, L235 + GAM IgG-FITC
[6] = biological target: p97 (melanotransferrin), GPI-anchored, on the cell surface (human) (UniProt P08582); test: FACS, SK-MEL-28 cells after PI-PLC treatment, staining against untreated stained cells
[7] = biological target: p97 (melanotransferrin), GPI-anchored, on the cell surface (human) (UniProt P08582); test: FACS, p97aWTBc3 cells after PI-PLC treatment, staining against untreated stained cells
[8] = biological target: p97 (melanotransferrin), GPI-anchored, on the cell surface (human) (UniProt P08582); test: FACS, p97aWTBc7 cells after PI-PLC treatment, staining against untreated stained cells
[9] = biological target: p97 (melanotransferrin), GPI-anchored, on the cell surface (human) (UniProt P08582); test: FACS, Sf9 cells infected with p97 B-1-1, pre-incubated with PI-PLC, L235 + GAM IgG-FITC
[10] = biological target: p97 (melanotransferrin), GPI-anchored, on the cell surface (human) (UniProt P08582); test: FACS, Sf9 cells infected with p97 B-2-1, pre-incubated with PI-PLC, L235 + GAM IgG-FITC
[11] = biological target: p97 (melanotransferrin), GPI-anchored, on the cell surface (human) (UniProt P08582); test: FACS, SK-MEL-28 cells after Pronase treatment, staining against untreated stained cells
[12] = biological target: transferrin added to TRVb and TRVb-1 cells (30 µg/mL, Example 19) (UniProt P02787); test: Pandex cell fluorescence, plate 919, untreated TRVb-1 cells + Tf only, stained with L235 (specificity control)
[13] = biological target: transferrin added to TRVb and TRVb-1 cells (30 µg/mL, Example 19) (UniProt P02787); test: Pandex cell fluorescence, plate 919, acid washed TRVb-1 cells + Tf only, stained with L235 (specificity control)
[14] = biological target: transferrin added to TRVb and TRVb-1 cells (30 µg/mL, Example 19) (UniProt P02787); test: Pandex cell fluorescence, plate 925 (unlabelled Abs then GAM FITC), untreated TRVb-1 cells + Tf only, stained with L235 (specificity control)
[15] = biological target: transferrin added to TRVb and TRVb-1 cells (30 µg/mL, Example 19) (UniProt P02787); test: Pandex cell fluorescence, plate 925 (unlabelled Abs then GAM FITC), acid washed TRVb-1 cells + Tf only, stained with L235 (specificity control)
[16] = biological target: transferrin added to TRVb and TRVb-1 cells (30 µg/mL, Example 19) (UniProt P02787); test: Pandex cell fluorescence, plate 922 (FITC Abs pre-incubated with GAM FITC), untreated TRVb-1 cells + Tf only, stained with L235 (specificity control)
[17] = biological target: transferrin added to TRVb and TRVb-1 cells (30 µg/mL, Example 19) (UniProt P02787); test: Pandex cell fluorescence, plate 922 (FITC Abs pre-incubated with GAM FITC), acid washed TRVb-1 cells + Tf only, stained with L235 (specificity control)
[18] = biological target: human transferrin receptor on cells (human) (UniProt P02786); test: Pandex cell fluorescence, plate 911, untreated TRVb-1 cells, OKT9 then GAM FITC
[19] = biological target: human transferrin receptor on cells (human) (UniProt P02786); test: Pandex cell fluorescence, plate 919, untreated TRVb-1 cells, OKT9 then GAM FITC
[20] = biological target: human transferrin receptor on cells (human) (UniProt P02786); test: Pandex cell fluorescence, plate 911, acid washed TRVb-1 cells, OKT9 then GAM FITC
[21] = biological target: human transferrin receptor on cells (human) (UniProt P02786); test: Pandex cell fluorescence, plate 919, acid washed TRVb-1 cells, OKT9 then GAM FITC
[22] = biological target: human transferrin receptor on cells (human) (UniProt P02786); test: FACS, SK-MEL-28 cells after PI-PLC treatment, staining against untreated stained cells
[23] = biological target: human transferrin receptor on cells (human) (UniProt P02786); test: FACS, SK-MEL-28 cells after Pronase treatment, staining against untreated stained cells
[24] = biological target: Thy-1 on EL-4 mouse lymphoma cells (mouse) (UniProt P01831); test: FACS, EL-4 cells after PI-PLC treatment, staining against untreated stained cells
[25] = biological target: Thy-1 on EL-4 mouse lymphoma cells (mouse) (UniProt P01831); test: FACS, EL-4 cells after Pronase treatment, staining against untreated stained cells

UniProt P02786, sequence (P02786 whole entry): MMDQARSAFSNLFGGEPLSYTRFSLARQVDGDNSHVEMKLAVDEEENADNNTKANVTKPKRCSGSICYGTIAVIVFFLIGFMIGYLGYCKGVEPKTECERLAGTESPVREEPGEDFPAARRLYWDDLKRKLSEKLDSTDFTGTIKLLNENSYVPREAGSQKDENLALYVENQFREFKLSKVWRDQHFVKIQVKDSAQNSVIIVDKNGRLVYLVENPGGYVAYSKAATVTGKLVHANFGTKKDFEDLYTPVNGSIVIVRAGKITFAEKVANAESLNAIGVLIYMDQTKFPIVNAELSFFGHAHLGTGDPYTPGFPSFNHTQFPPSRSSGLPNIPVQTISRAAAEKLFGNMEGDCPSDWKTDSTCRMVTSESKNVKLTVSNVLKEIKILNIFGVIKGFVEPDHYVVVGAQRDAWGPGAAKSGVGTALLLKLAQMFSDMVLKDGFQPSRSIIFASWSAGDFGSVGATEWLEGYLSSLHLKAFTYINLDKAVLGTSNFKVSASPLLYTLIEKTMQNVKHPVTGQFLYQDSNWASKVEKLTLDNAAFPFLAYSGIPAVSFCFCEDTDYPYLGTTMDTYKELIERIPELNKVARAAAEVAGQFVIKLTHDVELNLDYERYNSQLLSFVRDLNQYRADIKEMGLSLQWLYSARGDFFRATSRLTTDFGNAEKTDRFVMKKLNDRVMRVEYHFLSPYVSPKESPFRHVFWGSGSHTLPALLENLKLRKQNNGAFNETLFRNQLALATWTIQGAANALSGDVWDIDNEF
UniProt P08582, sequence (P08582 20-709): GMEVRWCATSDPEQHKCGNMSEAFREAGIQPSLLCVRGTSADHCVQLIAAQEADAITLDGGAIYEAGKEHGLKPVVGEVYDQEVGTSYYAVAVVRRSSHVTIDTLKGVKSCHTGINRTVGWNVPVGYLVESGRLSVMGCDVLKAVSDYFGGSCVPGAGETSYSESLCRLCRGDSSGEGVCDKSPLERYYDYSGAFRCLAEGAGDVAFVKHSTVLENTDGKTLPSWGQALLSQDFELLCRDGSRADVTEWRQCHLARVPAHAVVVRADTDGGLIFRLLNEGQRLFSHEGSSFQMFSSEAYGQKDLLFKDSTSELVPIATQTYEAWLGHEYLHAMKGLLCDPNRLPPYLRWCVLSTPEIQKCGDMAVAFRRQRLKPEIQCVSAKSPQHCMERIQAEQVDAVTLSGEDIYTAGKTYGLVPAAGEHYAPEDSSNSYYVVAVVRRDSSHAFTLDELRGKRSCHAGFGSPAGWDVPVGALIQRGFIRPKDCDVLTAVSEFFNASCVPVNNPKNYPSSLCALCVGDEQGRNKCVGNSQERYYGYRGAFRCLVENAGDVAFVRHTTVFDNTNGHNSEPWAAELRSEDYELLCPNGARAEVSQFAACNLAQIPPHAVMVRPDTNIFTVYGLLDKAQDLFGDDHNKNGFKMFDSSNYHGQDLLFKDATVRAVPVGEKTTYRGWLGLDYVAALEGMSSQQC
UniProt P02787, sequence (P02787 20-698 limits assumed): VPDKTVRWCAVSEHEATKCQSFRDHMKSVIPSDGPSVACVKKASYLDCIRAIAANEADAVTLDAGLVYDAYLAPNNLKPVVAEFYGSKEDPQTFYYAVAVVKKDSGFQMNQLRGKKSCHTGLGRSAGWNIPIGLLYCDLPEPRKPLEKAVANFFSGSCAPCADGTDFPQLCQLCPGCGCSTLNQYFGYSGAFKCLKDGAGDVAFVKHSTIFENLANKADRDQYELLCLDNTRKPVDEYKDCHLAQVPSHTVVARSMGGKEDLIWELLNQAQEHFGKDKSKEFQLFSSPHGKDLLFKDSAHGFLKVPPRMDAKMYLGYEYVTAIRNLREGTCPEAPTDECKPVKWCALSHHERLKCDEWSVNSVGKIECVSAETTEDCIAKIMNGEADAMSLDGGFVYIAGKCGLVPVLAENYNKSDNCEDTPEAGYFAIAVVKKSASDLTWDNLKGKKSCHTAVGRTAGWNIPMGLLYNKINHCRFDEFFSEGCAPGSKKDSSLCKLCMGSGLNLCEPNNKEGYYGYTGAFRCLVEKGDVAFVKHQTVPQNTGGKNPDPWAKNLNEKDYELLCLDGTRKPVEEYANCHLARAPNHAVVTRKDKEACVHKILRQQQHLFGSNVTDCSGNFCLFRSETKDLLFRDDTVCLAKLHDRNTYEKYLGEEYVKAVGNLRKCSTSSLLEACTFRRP
UniProt P01831, sequence (P01831 20-131): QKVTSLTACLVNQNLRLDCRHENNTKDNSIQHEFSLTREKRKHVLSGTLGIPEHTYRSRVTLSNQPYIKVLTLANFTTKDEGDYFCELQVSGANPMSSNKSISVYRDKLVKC

## L235 anti-p97 mouse monoclonal antibody
[1]
  internalization of Fe from 59Fe-citrate by p97TRVb cells: 31%
[2]
  FLUORESCENCE-converted linear value: 128
[3]
  FLUORESCENCE-converted linear value: 4.52
[4]
  FLUORESCENCE-converted linear value: 112
[5]
  FLUORESCENCE-converted linear value: 97.4
[6]
  Fluorescene Intensity (% of Control): 10.8 % of Control
[7]
  Fluorescene Intensity (% of Control): 6.8 % of Control
[8]
  Fluorescene Intensity (% of Control): 7.5 % of Control
[9]
  FLUORESCENCE-converted linear value: 5.74
[10]
  FLUORESCENCE-converted linear value: 6.85
[11]
  Fluorescene Intensity (% of Control): 82.6 % of Control
[12]
  fluorescence: 5330
  fluorescence less control (TRVb): 0
[13]
  fluorescence: 5320
  fluorescence less control (TRVb): 1120
[14]
  fluorescence: 2520
  fluorescence less control (TRVb): 237
[15]
  fluorescence: 2710
  fluorescence less control (TRVb): 758
[16]
  fluorescence: 7440
  fluorescence less control (TRVb): 0
[17]
  fluorescence: 6220
  fluorescence less control (TRVb): 107

## OKT9 anti-human transferrin receptor mouse monoclonal antibody
[18]
  fluorescence: 4760
  fluorescence less control: 3250
[19]
  fluorescence: 13600
  fluorescence less control: 11500
[20]
  fluorescence: 7140
  fluorescence less control: 5060
[21]
  fluorescence: 12500
  fluorescence less control: 10400
[22]
  Fluorescene Intensity (% of Control): 120 % of Control
[23]
  Fluorescene Intensity (% of Control): 15.9 % of Control

## T24/37.1 MAb (anti-Thy-1) (antibody)
[24]
  Fluorescene Intensity (% of Control): 32.5 % of Control
[25]
  Fluorescene Intensity (% of Control): 136 % of Control

Source: patent US20030077693A1
